In series [1] the target is T1, recombinant p600^4480–5183 (human, UniProt Q5T4S7 4480-5183).
T1 construct: Elutes mostly as a monomer (~75 kDa) in SEC; also called C-terminal portion of p600; source: E. coli BL21-Rosetta, purified (glutathione sepharose, PreScission cleavage, Resource Q)
Kind of series: SEC; analytical SEC, Superdex 200 5/150, 4°C, 10 mM HEPES pH 7.5, 0.15 M NaCl, 1 mM DTT; proteins alone or mixed at 50 µM and incubated 30 min on ice; fractions analysed by SDS-PAGE. The following applies: both partners purified.

Series [2] deals with the molecule itself. As to the kind of experiment: static light scattering; Ndel1^1–201 alone in solution; data not included.

T1 sequence (Q5T4S7 4480-5183): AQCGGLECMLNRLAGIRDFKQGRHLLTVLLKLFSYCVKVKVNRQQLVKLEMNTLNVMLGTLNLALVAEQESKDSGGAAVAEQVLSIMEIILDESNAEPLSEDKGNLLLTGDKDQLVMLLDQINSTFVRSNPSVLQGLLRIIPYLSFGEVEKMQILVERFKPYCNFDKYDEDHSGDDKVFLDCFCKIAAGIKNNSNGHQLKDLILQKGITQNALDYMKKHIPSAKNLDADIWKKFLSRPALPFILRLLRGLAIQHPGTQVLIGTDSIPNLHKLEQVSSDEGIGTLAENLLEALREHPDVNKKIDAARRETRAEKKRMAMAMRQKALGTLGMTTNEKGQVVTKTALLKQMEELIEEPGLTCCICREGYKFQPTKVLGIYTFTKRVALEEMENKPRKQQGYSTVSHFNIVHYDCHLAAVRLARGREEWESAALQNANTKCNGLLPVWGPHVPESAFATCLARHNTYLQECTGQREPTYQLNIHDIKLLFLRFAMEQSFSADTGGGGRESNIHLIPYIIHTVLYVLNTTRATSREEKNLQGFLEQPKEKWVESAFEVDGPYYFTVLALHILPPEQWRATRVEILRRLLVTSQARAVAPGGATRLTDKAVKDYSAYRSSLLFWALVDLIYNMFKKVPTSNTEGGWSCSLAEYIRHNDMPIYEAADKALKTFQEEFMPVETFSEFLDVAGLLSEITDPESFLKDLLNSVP

B1: Ndel1^1–201 (coiled-coil region of Ndel1) (domain or fragment, UniProt Q9GZM8 1-201, looked up)
chain: MDGEDIPDFSSLKEETAYWKELSLKYKQSFQEARDELVEFQEGSRELEAELEAQLVQAEQRNRDLQADNQRLKYEVEALKEKLEHQYAQSYKQVSVLEDDLSQTRAIKEQLHKYVRELEQANDDLERAKRATIVSLEDFEQRLNQAIERNAFLESELDEKESLLVSVQRLKDEARDLRQELAVRERQQEVTRKSAPSSPTL
notes: Dimeric in solution by static light scattering (data not included); also called N-terminal coiled-coil domain of Ndel1; source: E. coli BL21-Rosetta, purified (Ni-NTA, ion exchange)
In the case of B1, the Kd in series [1] was 30 to 50 µM. For the same molecule, in series [2], the “stoichiometry N” value was found to be 2.
